Tested on: T1, CagR (Streptomyces clavuligerus F613-1), ORF:155d736f
T1 sequence: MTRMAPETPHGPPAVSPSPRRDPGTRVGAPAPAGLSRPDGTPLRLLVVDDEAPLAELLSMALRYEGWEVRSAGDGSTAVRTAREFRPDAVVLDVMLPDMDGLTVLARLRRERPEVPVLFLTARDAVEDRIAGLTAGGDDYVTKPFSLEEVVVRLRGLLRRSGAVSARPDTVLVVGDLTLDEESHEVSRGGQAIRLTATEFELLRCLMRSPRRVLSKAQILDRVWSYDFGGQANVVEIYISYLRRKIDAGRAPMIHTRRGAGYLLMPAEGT
Assay: EMSA
Conditions: EMSA with 3.0 ug His-CagR and polydI/dC (1.0 mg as printed); buffer, pH and temperature not given (as in Zhang et al., 2015)

“CGACGCGCTCGGTCACAGGAATCTCCTTACGATGCATGCGGTGATGGAATAAGTATGCACTCGCCCGCATGTTTCGTCAATCATGGGTGCGCGATCGGTGCGTCCGACCGAAAGTGATCGGACGCTTACGCCATGGAGCGGCGCGCTGAACGCGTCGACGGAGGAATCCCCGGGGCCGTCGGACAGCGGCAGGGGTCTTCCGCACGGCGGCGGCCCGCCGCGGCATGCCGCAGGCCCCCGGCCGAGAGGGCCGGGGGCCTGCGGGGGTGGCGGCGCCGCGCCGGAGGGCCGGTCAGGCC (double strand) [argG upstream region (P2)]” was tested, and the binding was “binds”.
